US20220194997A1 (CHINESE UNIVERSITY OF HONG KONG, published 2022)

T1: SUMO1(15-55) (human, Where it is the MST target, it carries Alexa Fluor 647 NHS ester on amines (NHS-647); the letters do not show this.)
T1 construct: Fragment 15-55 of human SUMO1; Recombinant SUMO1 fragments were made with an N-terminal His-tag removed by thrombin; also called SUMO(15-55); SUMO1(15-55) peptide
T1 peptide: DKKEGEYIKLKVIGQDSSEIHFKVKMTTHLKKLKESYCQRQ


Tests used:
SUMO1(15-55) [1] = target: T1, SUMO1(15-55); experiment: MST (FIG. 11b)
Protocol: Unreacted dye was removed with desalting column (2K MWCO, Bio-Rad). The purity was monitored by measuring the ratio of protein to dye after the clean-up procedure. The labelled targets were adjusted to appropriate concentration for detection and kept in ddH2O with 0.1% Tween 20, meanwhile, the ligands were maintained in corresponding buffer (peptides: ddH2O; α-synuclein proteins: 20 mM HEPES, 150 mM NaCl, pH 7.4). For each assay, unlabelled ligand was mixed with equal volume of labelled protein target at 16 different serially diluted concentrations at room temperature.

[2] = target: human wild-type α-synuclein (full-length) (human, UniProt P37840 1-140); experiment: MST (FIG. 7)
SUMO1(15-55) [3] = target: T1, SUMO1(15-55); experiment: MST; NHS-647 labelled SUMO1(15-55) as target, peptide titrated as ligand
Protocol: The labelling reaction was performed according to the manufacturer's instructions. Unreacted dye was removed with the dye removal column supplied in the Protein Labelling Kit RED-NHS (NanoTemper Technologies) or desalting column (Bio-Rad). The purity was monitored by measuring the ratio of protein to dye (for example, spectroscopically by measuring absorption at 280 nm for protein and 650 nm for the dye; molar absorbance: 239,000 M⁻¹ cm⁻¹) after the clean-up procedure. The labelled targets were adjusted to appropriate concentration for detection. The ligands were dissolved in reaction buffer and a series of 16 1:1 dilutions was prepared. For the measurement, each ligand dilution was mixed with one volume of labelled protein target. After 10 min incubation, the samples were loaded into standard or premium Monolith NT.115 Capillaries (NanoTemper Technologies). MST was measured using a Monolith NT.115 instrument (NanoTemper Technologies) at an ambient temperature of 25° C. Instrument parameters were adjusted to 20% LED power and medium MST power. Data of three independently pipetted measurements were analyzed (MO.Affinity Analysis software version 2.1.3, NanoTemper Technologies) using the signal from an MST-on time of 5 s.

Kd (SUMO1(15-55) [3]) [µM] | Binder | further results
– | VVHGVATVAEKTK (Synthesized peptide; also called β2-strand peptide αsyn(48-60); SIM 2 (residues 48-60)) [αsyn(48-60)] | binding result (SUMO1(15-55) [1]): binds
– | SSEIHFKVKMTTHLKKLKESYCQRQ (also called SUMO(31-55)) [SUMO1(31-55)] | binding result [2]: binds
1.15 | EGVLYVGSKTK (Synthesized peptide fragment of α-synuclein; also called β1 strand peptide; β1-strand peptide-αsyn (35-45)) [αsyn(35-45)] | –
2.21 | VTAVAQKTVEG (Peptide fragment of α-synuclein; also called β4 strand peptide) [αsyn(74-84)] | –
